We go through two molecules from US20220119534A1 (DRAGONFLY THERAPEUTICS, published 2022).

Where “and” joins values, the source holds several entries; their conditions need not be identical. Equal values may be shown once. Read-outs that look alike come from different tables or passages of the source.

For orientation: kon means the rate constant with which the complex forms. One may read the Kd as the constant that tells how readily two partners part at equilibrium. By koff is commonly meant a measure of how fast the partners let go of each other.

Experiment [1] deals with T1, Human CLEC12A-His (recombinant, K244 WT) (human, UniProt Q5QGZ9 65-265).
T1 construct: Made in house (Dragonfly Tx); also called hCLEC12A; hCLEC12A-His; not shown: His tag
T1 sequence: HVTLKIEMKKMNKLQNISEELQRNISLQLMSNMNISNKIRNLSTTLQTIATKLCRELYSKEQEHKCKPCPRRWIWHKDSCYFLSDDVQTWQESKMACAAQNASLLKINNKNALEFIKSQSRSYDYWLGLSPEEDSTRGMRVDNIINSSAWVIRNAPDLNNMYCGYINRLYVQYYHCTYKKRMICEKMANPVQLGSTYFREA
The experiment in a line: SPR, two-state fit (ka1); control sample.

For experiment [2], the target named is T2, Human CLEC12A expressed on cells (Ba/F3-hCLEC12A, PL21, HL60) (human, UniProt Q5QGZ9 1-265).
T2 sequence: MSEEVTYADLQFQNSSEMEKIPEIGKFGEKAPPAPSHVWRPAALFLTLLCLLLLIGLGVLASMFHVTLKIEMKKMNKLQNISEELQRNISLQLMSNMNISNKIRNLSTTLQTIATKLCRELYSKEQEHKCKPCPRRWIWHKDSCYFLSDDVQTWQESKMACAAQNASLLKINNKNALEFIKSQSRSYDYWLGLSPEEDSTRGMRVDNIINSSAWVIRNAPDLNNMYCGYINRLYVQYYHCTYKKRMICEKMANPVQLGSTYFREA
The experiment in a line: cell-based or functional assay.

In experiment [3] the target is T2, Human CLEC12A expressed on cells …. The experiment in a line: cell-based or functional assay. The source holds these as a separate data set.
In experiment [4] the target is T1, Human CLEC12A-His (recombinant, K244 WT). The experiment in a line: SPR, two-state fit (ka1); control sample. This is another data set of the same source. In general terms: In SPR one partner is held on a chip, and binding of the other changes the refractive index at the surface.
Experiment [5] shares this target. The experiment in a line: SPR, two-state fit; after 4 wks 40C in CST pH 7.0.
The target is the same in experiment [6]. Nature of the experiment: SPR, two-state fit; after pH 8, 40C, 2 wks.
Experiment [7] addresses T3, Human CD32a R131 (FcγRIIa R131) (human, UniProt P12318 36-218, limits assumed, biotinylated).
T3 construct: Bought recombinant receptor; also called hFcγRIIa R131; FcgRIIa R131
T3 sequence (looked up): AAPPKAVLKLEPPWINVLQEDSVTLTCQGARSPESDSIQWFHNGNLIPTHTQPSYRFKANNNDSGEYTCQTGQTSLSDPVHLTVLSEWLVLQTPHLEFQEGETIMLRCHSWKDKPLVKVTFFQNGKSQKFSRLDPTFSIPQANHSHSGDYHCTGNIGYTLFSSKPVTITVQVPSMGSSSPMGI
The experiment in a line: SPR 25C, average.

In experiment [8] the target is T4, Human CD32a H131 (FcγRIIa H131) (human, UniProt P12318 36-218, limits assumed, biotinylated).
T4 construct: Bought recombinant receptor; also called hFcγRIIa H131; FcgRIIa H131
T4 sequence (looked up): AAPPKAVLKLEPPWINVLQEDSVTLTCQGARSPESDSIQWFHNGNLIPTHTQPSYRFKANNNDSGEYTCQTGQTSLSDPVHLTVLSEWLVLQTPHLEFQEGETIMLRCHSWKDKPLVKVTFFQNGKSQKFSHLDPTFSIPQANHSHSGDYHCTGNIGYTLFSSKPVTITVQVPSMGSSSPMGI
The experiment in a line: SPR 25C, average.

For experiment [9], the target named is T5, mFc-hNKG2D (recombinant mFc-tagged human NKG2D dimer) (human, UniProt P26718 73-216).
T5 construct: extracellular domain; Made in house; not shown: mouse Fc tag
T5 sequence (looked up): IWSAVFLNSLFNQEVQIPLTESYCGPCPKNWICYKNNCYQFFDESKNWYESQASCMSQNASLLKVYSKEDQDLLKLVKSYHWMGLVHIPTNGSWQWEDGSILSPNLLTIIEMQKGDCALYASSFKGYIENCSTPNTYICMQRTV
Nature of the experiment: SPR; after pH 8, 40C, 2 wks (n = 2).

In experiment [10] the target is T6, mFc-hNKG2D (human, UniProt P26718 73-216).
T6 construct: extracellular domain; Recombinant mFc-tagged NKG2D dimer, made in house; also called human NKG2D; not shown: mouse Fc tag
T6 sequence (looked up): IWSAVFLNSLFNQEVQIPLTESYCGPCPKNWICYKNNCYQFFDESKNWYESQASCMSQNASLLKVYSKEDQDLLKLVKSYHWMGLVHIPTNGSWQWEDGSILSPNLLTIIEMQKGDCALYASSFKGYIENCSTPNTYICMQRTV
Nature of the experiment: SPR; sample after forced oxidation (0.02% H2O2, 24 h).

Experiment [11] deals with T7, Human CD16a V158 (human, UniProt P08637 17-208, biotinylated).
T7 construct: Bought recombinant receptor; also called hCD16a (V158); hFcγRIIIa V158
T7 sequence (P08637 17-208 F176V limits assumed): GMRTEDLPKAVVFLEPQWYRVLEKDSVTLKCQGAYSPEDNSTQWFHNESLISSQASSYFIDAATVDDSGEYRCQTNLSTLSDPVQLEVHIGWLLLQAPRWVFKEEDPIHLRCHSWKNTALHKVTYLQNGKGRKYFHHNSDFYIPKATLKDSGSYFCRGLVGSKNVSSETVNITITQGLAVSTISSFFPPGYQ
The experiment is described as above.

The target of experiment [12] is T8, human CLEC12A on cells (HL60, PL21, Ba/F3-hCLEC12A) (human, UniProt Q5QGZ9 1-265).
T8 construct: Endogenous on the AML lines HL60 and PL21; brought into mouse Ba/F3 cells by retroviral transduction; The cell line stands under assay; also called CLL-1
T8 sequence: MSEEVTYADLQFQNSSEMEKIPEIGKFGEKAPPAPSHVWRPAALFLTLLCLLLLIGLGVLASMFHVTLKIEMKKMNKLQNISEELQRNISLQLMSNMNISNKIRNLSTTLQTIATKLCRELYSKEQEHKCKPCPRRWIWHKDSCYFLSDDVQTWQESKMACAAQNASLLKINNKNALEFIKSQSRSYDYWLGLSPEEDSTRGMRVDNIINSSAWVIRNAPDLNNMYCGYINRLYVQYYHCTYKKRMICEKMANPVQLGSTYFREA
The experiment in a line: flow cytometry, 40 nM, MFI after 2 h 37 C relative to 2 h on ice, HL60 cells. A general note: A flow cytometer gives signals particle by particle.

Experiment [13] addresses T9, Human CD32a R131 (human, UniProt P12318 36-218, limits assumed, biotinylated).
T9 construct: Bought recombinant receptor; also called hFcγRIIa R131
T9 sequence (looked up): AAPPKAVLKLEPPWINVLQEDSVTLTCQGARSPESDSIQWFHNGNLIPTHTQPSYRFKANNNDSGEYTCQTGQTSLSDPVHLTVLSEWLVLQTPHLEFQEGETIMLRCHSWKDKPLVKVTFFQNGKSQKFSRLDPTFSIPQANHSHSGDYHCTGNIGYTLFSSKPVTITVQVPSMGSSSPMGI
Nature of the experiment: SPR, steady state fit; average for AB0192.

Experiment [14] concerns the target T10, Human CD32a H131 (human, UniProt P12318 36-218, limits assumed, biotinylated).
T10 construct: Bought recombinant receptor; also called hFcγRIIa H131
T10 sequence (looked up): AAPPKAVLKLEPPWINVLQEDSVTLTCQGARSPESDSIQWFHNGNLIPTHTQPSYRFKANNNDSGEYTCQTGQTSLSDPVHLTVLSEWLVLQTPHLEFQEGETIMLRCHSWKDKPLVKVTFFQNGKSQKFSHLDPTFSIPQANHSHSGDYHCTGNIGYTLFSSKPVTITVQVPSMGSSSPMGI
The experiment in a line: SPR, steady state fit; average for AB0192.

Experiment [15] has as its target T11, Human FcRn (human, UniProt P55899 24-297; P61769 21-119).
T11 construct: Bought recombinant receptor; also called hFcRn
Nature of the experiment: SPR, steady state fit.

The target of experiment [16] is T12, Cynomolgus FcRn (cynomolgus monkey, UniProt Q8SPV9 24-297; Q8SPW0 21-119).
T12 construct: Bought recombinant receptor; also called cFcRn; Cyno FcRn
T12 sequence (Q8SPV9 24-297 limits assumed, chain 1 of 2): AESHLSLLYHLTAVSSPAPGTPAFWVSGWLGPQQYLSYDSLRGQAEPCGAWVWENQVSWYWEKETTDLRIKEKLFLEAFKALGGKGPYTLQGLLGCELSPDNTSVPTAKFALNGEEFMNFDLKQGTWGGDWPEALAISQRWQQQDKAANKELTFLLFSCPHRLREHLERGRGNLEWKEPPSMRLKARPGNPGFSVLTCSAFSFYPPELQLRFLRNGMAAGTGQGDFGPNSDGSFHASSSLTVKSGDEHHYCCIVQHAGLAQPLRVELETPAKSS
T12 sequence (Q8SPW0 21-119 limits assumed, chain 2 of 2): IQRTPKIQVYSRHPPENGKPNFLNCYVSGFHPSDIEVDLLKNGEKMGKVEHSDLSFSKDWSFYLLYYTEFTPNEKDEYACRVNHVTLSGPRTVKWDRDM
Nature of the experiment: SPR, steady state fit.

T11 sequence (P55899 24-297 limits assumed, chain 1 of 2): as the sequence (Q8SPV9 24-297 limits assumed, chain 1 of 2) above, with D39N, Q44E, S99G, G189S, N190S, M217L, T269S counted along it
T11 sequence (P61769 21-119 limits assumed, chain 2 of 2): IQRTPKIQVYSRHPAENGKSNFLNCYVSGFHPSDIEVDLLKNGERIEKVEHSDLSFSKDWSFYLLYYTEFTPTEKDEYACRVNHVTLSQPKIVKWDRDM

B1: AB0089 TriNKET (bispecific antibody, human IgG1, kappa)
chain: QLQLQESGPGLVKPSETLSLTCTVSGFSLTNYGLHWIRQPPGKCLEWIGVIWVGGATDYNPSLKSRVTISVDTSKNQFSLKLSSVQAADTAVYYCAKGDYGDTLDYWGQGTLVTVSSGGGGSGGGGSGGGGSGGGGSDIQMTQSPSSLSASVGDRVTITCHASQNINFWLSWYQQKPGKAPKLLIYEASNLHTGVPSRFSGSGSGTDFTLTISSLQPEDFATYYCQQSHSYPLTFGCGTKLEIKGSDKTHTCPPCPAPELLGGPSVFLFPPKPKDTLMISRTPEVTCVVVDVSHEDPEVKFNWYVDGVEVHNAKTKPREEQYNSTYRVVSVLTVLHQDWLNGKEYKCKVSNKALPAPIEKTISKAKGQPREPRVYTLPPCRDELTKNQVSLTCLVKGFYPSDIAVEWESNGQPENNYKTTPPVLVSDGSFTLYSKLTVDKSRWQQGNVFSCSVMHEALHNHYTQKSLSLSPG
heavy: EVQLVESGGGLVKPGGSLRLSCAASGFTFSSYSMNWVRQAPGKGLEWVSSISSSSSYIYYADSVKGRFTISRDNAKNSLYLQMNSLRAEDTAVYYCARGAPIGAAAGWFDPWGQGTLVTVSSASTKGPSVFPLAPSSKSTSGGTAALGCLVKDYFPEPVTVSWNSGALTSGVHTFPAVLQSSGLYSLSSVVTVPSSSLGTQTYICNVNHKPSNTKVDKKVEPKSCDKTHTCPPCPAPELLGGPSVFLFPPKPKDTLMISRTPEVTCVVVDVSHEDPEVKFNWYVDGVEVHNAKTKPREEQYNSTYRVVSVLTVLHQDWLNGKEYKCKVSNKALPAPIEKTISKAKGQPREPQVCTLPPSRDELTENQVSLTCLVKGFYPSDIAVEWESNGQPENNYKTTPPVLDSDGSFFLYSWLTVDKSRWQQGNVFSCSVMHEALHNHYTQKSLSLSPG
light: DIQMTQSPSSVSASVGDRVTITCRASQGISSWLAWYQQKPGKAPKLLIYAASSLQSGVPSRFSGSGSGTDFTLTISSLQPEDFATYYCQQGVSFPRTFGGGTKVEIKRTVAAPSVFIFPPSDEQLKSGTASVVCLLNNFYPREAKVQWKVDNALQSGNSQESVTEQDSKDSTYSLSSTLTLSKADYEKHKVYACEVTHQGLSSPVTKSFNRGEC
notes: F3' format heterodimer of three chains; human IgG1 Fc with EW-RVT and Y349C/S354C mutations; also called AB0089 Lot AB0089-002; CLEC12A TriNKET AB0089
Regarding B1, the kon in experiment [1] came to 1.01e+07 M⁻¹ s⁻¹; in [4] it was 8.87e+06 M⁻¹ s⁻¹; in experiment [9], 130000 M⁻¹ s⁻¹. Further, the “EC50, cytotoxicity potency; after pH 8, 40C, 2 wks” value in [2] was found to be 0.23 nM. In addition, in experiment [2], the “EC50, cytotoxicity potency; control sample” value turned out to be 0.11 nM. Further, in experiment [3], the “EC50, primary NK mediated cytotoxic killing of PL21 cells” value worked out at 0.35 nM. For the same molecule, the Kd in [5] amounted to 1 nM; in experiment [6], 0.9 nM; in experiment [7], 1250 nM; in [8], 900 nM; in [9], 983 nM. Also, the koff in experiment [9] is 0.127 s⁻¹.

B2: AB0192 TriNKET (other)
chain: EVQLVESGGGVVQPGGSLRLSCAASGFTFNAFGMHWVRQAPGKCLEWVAFISSGSTSIYYANTVKGRFTISRDNSKNTLYLQMNSLRAEDTAVYYCARDGYPTGGAMDYWGQGTSVTVSSGGGGSGGGGSGGGGSGGGGSDIQMTQSPSSLSASVGDRVTITCKASQDIYNYLSWFQQKPGKAPKPLIYRANILVSGVPSRFSGSGSGQDYTFTISSLQPEDIATYYCLQFDAFPFTFGCGTKLEIKGSDKTHTCPPCPAPELLGGPSVFLFPPKPKDTLMISRTPEVTCVVVDVSHEDPEVKFNWYVDGVEVHNAKTKPREEQYNSTYRVVSVLTVLHQDWLNGKEYKCKVSNKALPAPIEKTISKAKGQPREPRVYTLPPCRDELTKNQVSLTCLVKGFYPSDIAVEWESNGQPENNYKTTPPVLVSDGSFTLYSKLTVDKSRWQQGNVFSCSVMHEALHNHYTQKSLSLSPG
heavy: EVQLVESGGGLVKPGGSLRLSCAASGFTFSSYSMNWVRQAPGKGLEWVSSISSSSSYIYYADSVKGRFTISRDNAKNSLYLQMNSLRAEDTAVYYCARGAPIGAAAGWFDPWGQGTLVTVSSASTKGPSVFPLAPSSKSTSGGTAALGCLVKDYFPEPVTVSWNSGALTSGVHTFPAVLQSSGLYSLSSVVTVPSSSLGTQTYICNVNHKPSNTKVDKKVEPKSCDKTHTCPPCPAPELLGGPSVFLFPPKPKDTLMISRTPEVTCVVVDVSHEDPEVKFNWYVDGVEVHNAKTKPREEQYNSTYRVVSVLTVLHQDWLNGKEYKCKVSNKALPAPIEKTISKAKGQPREPQVCTLPPSRDELTENQVSLTCLVKGFYPSDIAVEWESNGQPENNYKTTPPVLDSDGSFFLYSWLTVDKSRWQQGNVFSCSVMHEALHNHYTQKSLSLSPG
light: DIQMTQSPSSVSASVGDRVTITCRASQGISSWLAWYQQKPGKAPKLLIYAASSLQSGVPSRFSGSGSGTDFTLTISSLQPEDFATYYCQQGVSFPRTFGGGTKVEIKRTVAAPSVFIFPPSDEQLKSGTASVVCLLNNFYPREAKVQWKVDNALQSGNSQESVTEQDSKDSTYSLSSTLTLSKADYEKHKVYACEVTHQGLSSPVTKSFNRGEC
notes: the condition stands under assay; also called AB0192 Lot AB0192-005
As to B2, the Kd in [10] was 612 nM; in experiment [11], 162 nM; in [13], 1400 nM; in experiment [14] it was 1010 nM; in [15] it was 1500 nM and 1300 nM; in experiment [16], 1500 nM and 1400 nM and 1200 nM. In addition, the koff came to 0.119 s⁻¹ in experiment [10] and 0.0192 s⁻¹ in experiment [11]. In addition, the kon is 195000 M⁻¹ s⁻¹ in [10] and 119000 M⁻¹ s⁻¹ in experiment [11]. Further, the percent surface retention in experiment [12] is 103%.
